# Test results taken from article PMC8119676, “Human ribonuclease 1 serves as a secretory ligand of ephrin A4 receptor and induces breast tumor initiation” (Nature Communications, 2021).
# B1: recombinant ephrin-A5 (ligand, UniProt P52803 21-203, looked up)
# chain: QDPGSKAVADRYAVYWNSSNPRFQRGDYHIDVCINDYLDVFCPHYEDSVPEDKTERYVLYMVNFDGYSACDHTSKGFKRWECNRPHSPNGPLKFSEKFQLFTPFSLGFEFRPGREYFYISSAIPDNGRRSCLKLKVFVRPTNSCMKTIGVHDRVFDVNDKVENSLEPADDTVHESAEPSRGEN
# notes: ephrin-A5, recombinant; 5.6 nM is printed as equivalent to 0.15 μg/ml, which implies about 27 kDa
# B2: recombinant hRNase 1 protein purified from HEK293 cells (enzyme, human, UniProt P07998 29-156, looked up)
# chain: KESRAKKFQRQHMDSDSSPSSSSTYCNQMMRRRNMTQGRCKPVNTFVHEPLVDVQNVCFQEKVTCKNGQGNCYKSNSSMHITDCRLTNGSRYPNCAYRTSPKERHIIVACEGSPYVPVHFDASVEDST
# modifications: N-linked glycosylation, heterogeneous (glycosylated and non-glycosylated bands; sites reported at Asn-34, Asn-76, Asn-88)
# notes: human ribonuclease 1 (hRNase 1), bought recombinant protein; The ELISA methods say only 'recombinant hRNase 1'; also called human ribonuclease 1; source: bought: Sino Biological Inc. #13468-H08H, purified from HEK293 cells
# Legend:
# [1] = biological target: EphA4 (Homo sapiens) (UniProt P54764); conditions: cited from earlier work
# Chain of EphA4 (Homo sapiens) (P54764 20-547): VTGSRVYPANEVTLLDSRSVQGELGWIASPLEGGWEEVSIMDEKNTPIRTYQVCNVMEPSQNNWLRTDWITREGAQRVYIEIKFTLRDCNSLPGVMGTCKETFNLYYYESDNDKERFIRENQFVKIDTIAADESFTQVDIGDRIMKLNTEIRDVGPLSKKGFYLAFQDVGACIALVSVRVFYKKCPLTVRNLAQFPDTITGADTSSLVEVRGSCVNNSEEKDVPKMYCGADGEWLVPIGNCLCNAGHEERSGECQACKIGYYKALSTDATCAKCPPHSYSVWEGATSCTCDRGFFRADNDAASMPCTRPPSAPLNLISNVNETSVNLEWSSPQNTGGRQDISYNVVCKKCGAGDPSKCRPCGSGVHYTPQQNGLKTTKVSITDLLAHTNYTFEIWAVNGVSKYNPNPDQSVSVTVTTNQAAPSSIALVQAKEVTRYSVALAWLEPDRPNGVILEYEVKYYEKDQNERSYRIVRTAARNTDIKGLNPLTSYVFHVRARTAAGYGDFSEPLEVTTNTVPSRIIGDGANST
# [2] = biological target: T1, endogenous EphA4 (human (endogenous in MCF7, BT-549, KPL4), UniProt P54764-1 20-986); assay: ELISA; saturation binding; EphA4 captured from BT-549 RIPA lysates on plates coated with EphA4 antibody; dilution series of recombinant hRNase 1 or ephrin-A5 in RIPA buffer overnight at 4 °C; biotin-conjugated detection antibodies; Kd estimated, Scatchard plot; conditions: one partner purified
# T1 construct: EphA4 receptor tyrosine kinase, endogenous in human breast cancer cell lines; On cells in the co-IP (ligand added to cells, DSP fixed) and in the PLA; also called ephrin A4 receptor
# T1 sequence (P54764 20-986): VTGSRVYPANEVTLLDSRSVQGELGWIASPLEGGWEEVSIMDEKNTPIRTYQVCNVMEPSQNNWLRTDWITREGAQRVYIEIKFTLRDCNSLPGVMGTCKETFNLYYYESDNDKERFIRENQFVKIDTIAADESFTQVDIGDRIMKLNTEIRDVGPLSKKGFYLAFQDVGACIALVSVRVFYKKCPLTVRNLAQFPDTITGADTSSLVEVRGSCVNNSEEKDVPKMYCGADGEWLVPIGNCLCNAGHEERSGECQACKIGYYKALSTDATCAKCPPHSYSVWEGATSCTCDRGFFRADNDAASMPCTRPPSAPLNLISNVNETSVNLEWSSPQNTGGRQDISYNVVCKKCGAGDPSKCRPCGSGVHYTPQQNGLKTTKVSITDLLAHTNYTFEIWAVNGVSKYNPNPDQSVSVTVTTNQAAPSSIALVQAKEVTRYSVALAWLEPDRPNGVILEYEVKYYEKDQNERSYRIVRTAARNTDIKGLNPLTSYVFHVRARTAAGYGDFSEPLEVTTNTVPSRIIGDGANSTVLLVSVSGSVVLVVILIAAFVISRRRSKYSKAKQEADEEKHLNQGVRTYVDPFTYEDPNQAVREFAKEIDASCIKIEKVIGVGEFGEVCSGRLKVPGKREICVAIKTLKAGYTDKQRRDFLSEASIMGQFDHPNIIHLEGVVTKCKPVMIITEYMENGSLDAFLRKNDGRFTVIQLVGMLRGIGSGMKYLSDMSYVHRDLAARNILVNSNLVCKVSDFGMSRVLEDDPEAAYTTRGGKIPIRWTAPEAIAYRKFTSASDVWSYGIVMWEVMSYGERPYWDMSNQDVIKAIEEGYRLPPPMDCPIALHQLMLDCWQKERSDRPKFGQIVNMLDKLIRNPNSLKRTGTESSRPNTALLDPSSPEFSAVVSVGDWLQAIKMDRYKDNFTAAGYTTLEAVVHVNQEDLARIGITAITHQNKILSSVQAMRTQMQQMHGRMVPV
# [3] = biological target: T1, endogenous EphA4; assay: cell-based or functional assay
molecule,measurement,setting,value
Ephrin-A5 (from UniProt P52803),Kd,[1],< 10 nM
B1,Kd,[2],5.6 nM
B2,Kd,[2],92.4 nM
same,"EC50 of EphA4 phosphorylation (pY779-EphA4, WB) in BT-549 cells treated with hRNase 1 at various concentrations for 30 min",[3],9.85 nM
